Data: patent US20180057567A1 (Sanofi, published 2018)
One block for each binder: values may come before it.

What was measured:
CD3 = molecular target: T1, CD3; assay: SPR (Biacore), CD3 as analyte
T1 chain 1: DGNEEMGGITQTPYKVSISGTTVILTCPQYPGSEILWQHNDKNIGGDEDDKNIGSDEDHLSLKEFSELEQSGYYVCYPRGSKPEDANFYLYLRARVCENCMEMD
T1 chain 2: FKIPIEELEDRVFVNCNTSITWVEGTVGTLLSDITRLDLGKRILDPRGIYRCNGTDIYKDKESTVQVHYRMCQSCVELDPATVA

CD123 = molecular target: T2, CD123 (UniProt P26951 19-305, limits assumed); assay: SPR (Biacore), CD123 as analyte
T2 sequence (looked up): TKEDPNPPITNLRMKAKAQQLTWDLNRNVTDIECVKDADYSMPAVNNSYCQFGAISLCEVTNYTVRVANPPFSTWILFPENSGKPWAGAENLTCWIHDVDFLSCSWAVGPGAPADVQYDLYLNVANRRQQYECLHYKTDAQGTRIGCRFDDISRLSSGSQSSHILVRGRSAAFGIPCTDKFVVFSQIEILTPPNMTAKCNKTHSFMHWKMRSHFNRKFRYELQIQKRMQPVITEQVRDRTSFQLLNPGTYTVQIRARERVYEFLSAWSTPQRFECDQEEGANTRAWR

recombinant human IL4 = molecular target: T3, recombinant human IL4 (human, UniProt P05112 25-153); assay: SPR (Biacore)
T3 construct: Bought protein
T3 sequence (looked up): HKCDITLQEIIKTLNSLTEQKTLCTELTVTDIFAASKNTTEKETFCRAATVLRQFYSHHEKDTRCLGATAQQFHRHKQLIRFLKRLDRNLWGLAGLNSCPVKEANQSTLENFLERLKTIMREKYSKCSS

Kd (CD3): 5.71 nM
koff (CD3): 0.0009 s⁻¹
kon (CD3): 158000 M⁻¹ s⁻¹
Kd (CD123): 0.0838 nM
koff (CD123): 3.77e-05 s⁻¹
kon (CD123): 450000 M⁻¹ s⁻¹
B1: antibody in Bivalent Fab configuration, MCH2 domain of one Fab-like fragment (CD3) linked to a variable domain of the other Fab (CD123) (Example 5) (bispecific antibody)
light 1: DIVMTQTPLSLSVTPGQPASISCKSSQSLVHNNANTYLSWYLQKPGQSPQSLIYKVSNRFSGVPDRFSGSGSGTDFTLKISRVEAEDVGVYYCGQGTQYPFTFGSGTKVEIKRTVIAELPPKVSVFVPPRDGFFGNPRKSKLICQATGFSPRQIQVSWLREGKQVGSGVTTDQVQAEAKESGPTTYKVTSTLTIKESDWLGQSMFTCRVDHRGLTFQQNASSMCVP
heavy: QVQLVESGGGVVQPGRSLRLSCAASGFTFTKAWMHWVRQAPGKQLEWVAQIKDKSNSYATYYADSVKGRFTISRDDSKNTLYLQMNSLRAEDTAVYYCRGVYYALSPFDYWGQGTLVTVSSGGVIAELPPKVSVFVPPRDGFFGNPRKSKLICQATGFSPRQIQVSWLREGKQVGSGVTTDQVQAEAKESGPTTYKVTSTLTIKESDWLGQSMFTCRVDHRGLTFQQNASSMCVPGGGSEVQLVQSGAEVKKPGESLKISCKGSGYSFTDYYMKWARQMPGKGLEWMGDIIPSSGATFYNQKFKGQVTISADKSISTTYLQWSSLKASDTAMYYCARSHLLRASWFAYWGQGTMVTVSSASTKGPSVFPLAPSSKSTSGGTAALGCLVKDYFPEPVTVSWNSGALTSGVHTFPAVLQSSGLYSLSSVVTVPSSSLGTQTYICNVNHKPSNTKVDKKVEPKSCDKTHTHHHHHH
light 2: not shown
notes: also called bispecific bivalent Fab; bivalent bispecific Fab fragment

binding result (recombinant human IL4): binds
B2: bispecific Fab-like fragment in the CODV bivalent Fab configuration (ECH2), anti-IL13 (huBB13) x anti-IL4 (hu8D4-8) (Example 6) (bispecific antibody)
chain 1: EVQLKESGPGLVAPGGSLSITCTVSGFSLTDSSINWVRQPPGKGLEWLGMIWGDGRIDYADALKSRLSISKDSSKSQVFLEMTSLRTDDTATYYCARDGYFPYAMDFWGQGTSVTVSSSQVQLQQSGPELVKPGASVKISCKASGYSFTSYWIHWIKQRPGQGLEWIGMIDPSDGETRLNQRFQGRATLTVDESTSTAYMQLRSPTSEDSAVYYCTRLKEYGNYDSFYFDVWGAGTLVTVSSRTASTKGPVASRDFTPPTVKILQSSCDGGGHFPPTIQLLCLVSGYTPGTIQITWLEDGQVMDVDLSTASTTQEGELASTQSELTLSQKHWLSDRTYTCQVTYQGHTFEDSTKKCAGSHHHHHHHH
chain 2: DIQMTQSPASLSVSVGDTITLTCHASQNIDVWLSWFQQKPGNIPKLLIYKASNLHTGVPSRFSGSGSGTGFTLTISSLQPEDIATYYCQQAHSYPFTFGGGTKLEIKGQPKAAPDIVLTQSPASLAVSLGQRATISCRASESVDSYGQSYMHWYQQKAGQPPKLLIYLASNLESGVPARFSGSGSRTDFTLTIDPVQAEDAATYYCQQNAEDSRTFGGGTKLEIKTKGPSRTVASRDFTPPTVKILQSSCDGGGHFPPTIQLLCLVSGYTPGTIQITWLEDGQVMDVDLSTASTTQEGELASTQSELTLSQKHWLSDRTYTCQVTYQGHTFEDSTKKCA
notes: An 8x histidine tag was added for purification; also called CH2E-pseudo-CODV antibody

binding result (recombinant human IL4): binds
B3: F(ab')2-like antibody with ECH2 replacing the hinge region, anti-IL4 (hu8D4-8) CH1/kappa Fab and anti-IL13 (huBB13) MCH2 Fab (Example 7) (bispecific antibody)
heavy 1: VQLQQSGPELVKPGASVKISCKASGYSFTSYWIHWIKQRPGQGLEWIGMIDPSDGETRLNQRFQGRATLTVDESTSTAYMQLRSPTSEDSAVYYCTRLKEYGNYDSFYFDVWGAGTLVTVSSASTKGPSVFPLAPSSKSTSGGTAALGCLVKDYFPEPVTVSWNSGALTSGVHTFPAVLQSSGLYSLSSVVTVPSSSLGTQTYICNVNHKPSNTKVDKKVEPKSCGSGSGSVASRDFTPPTVKILQSSCDGGGHFPPTIQLLCLVSGYTPGTIQITWLEDGQVMDVDLSTASTTQEGELASTQSELTLSQKHWLSDRTYTCQVTYQGHTFEDSTKKCA
light 1: DIQMTQSPASLSVSVGDTITLTCHASQNIDVWLSWFQQKPGNIPKLLIYKASNLHTGVPSRFSGSGSGTGFTLTISSLQPEDIATYYCQQAHSYPFTFGGGTKLEIKRTVAAPSVFIFPPSDEQLKSGTASVVCLLNNFYPREAKVQWKVDNALQSGNSQESVTEQDSKDSTYSLSSTLTLSKADYEKHKVYACEVTHQGLSSPVTKSFNRGEC
heavy 2: EVQLKESGPGLVAPGGSLSITCTVSGFSLTDSSINWVRQPPGKGLEWLGMIWGDGRIDYADALKSRLSISKDSSKSQVFLEMTSLRTDDTATYYCARDGYFPYAMDFWGQGTSVTVSSGSGSGSVIAELPPKVSVFVPPRDGFFGNPRKSKLICQATGFSPRQIQVSWLREGKQVGSGVTTDQVQAEAKESGPTTYKVTSTLTIKESDWLGQSMFTCRVDHRGLTFQQQASSMCVPGSGSGSVASRDFTPPTVKILQSSCDGGGHFPPTIQLLCLVSGYTPGTIQITWLEDGQVMDVDLSTASTTQEGELASTQSELTLSQKHWLSDRTYTCQVTYQGHTFEDSTKKCAGSHHHHHHHH
light 2: DIVLTQSPASLAVSLGQRATISCRASESVDSYGQSYMHWYQQKAGQPPKLLIYLASNLESGVPARFSGSGSRTDFTLTIDPVQAEDAATYYCQQNAEDSRTFGGGTKLEIKRTVIAELPPKVSVFVPPRDGFFGNPRKSKLICQATGFSPRQIQVSWLREGKQVGSGVTTDQVQAEAKESGPTTYKVTSTLTIKESDWLGQSMFTCRVDHRGLTFQQQASSMCVP
notes: also called pseudo hinge-CH2E-hybrid-Fab2
